Measured values taken from patent US20240269306A1 (MERSANA THERAPEUTICS, published 2024).

Experiments:
[1] = molecular target: T1, Mouse B7-H4 protein (Creative Biomart; VTCN1-1519R) (mouse, UniProt Q7TSP5 25-257); assay: ELISA, coated mouse B7-H4, mean of two studies
T1 construct: Bought protein
T1 sequence (looked up): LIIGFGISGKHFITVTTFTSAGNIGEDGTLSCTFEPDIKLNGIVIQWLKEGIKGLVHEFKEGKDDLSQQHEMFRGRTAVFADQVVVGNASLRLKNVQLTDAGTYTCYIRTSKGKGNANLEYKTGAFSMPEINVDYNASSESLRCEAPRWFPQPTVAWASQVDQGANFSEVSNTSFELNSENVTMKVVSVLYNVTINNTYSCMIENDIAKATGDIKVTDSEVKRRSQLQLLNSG

[2] = molecular target: T2, Human B7-H4 on the cell surface (MX-1, HCC1569, CAMA-1 cells); HEK-293 cells stably transfected with human … (human, UniProt Q7Z7D3 25-282); assay: flow cytometry, MX-1 cells, mean of two experiments
T2 construct: The cell line of each result is named under assay or readout; also called cell surface B7-H4
T2 sequence: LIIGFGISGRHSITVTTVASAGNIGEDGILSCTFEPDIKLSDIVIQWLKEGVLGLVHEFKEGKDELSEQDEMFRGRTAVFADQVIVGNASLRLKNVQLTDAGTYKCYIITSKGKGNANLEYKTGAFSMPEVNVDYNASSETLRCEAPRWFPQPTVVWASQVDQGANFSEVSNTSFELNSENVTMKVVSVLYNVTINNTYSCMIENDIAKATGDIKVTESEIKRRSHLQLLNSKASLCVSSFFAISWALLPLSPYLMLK

[3] = molecular target: T2, Human B7-H4 on the cell surface (MX-1, …); assay: flow cytometry, MX-1 cells
[4] = molecular target: T3, Monkey B7-H4 protein (Creative Biomart; VTCN1-1519R) (monkey); assay: ELISA, coated monkey B7-H4, mean of two studies
T3 construct: Bought protein

[5] = molecular target: T2, Human B7-H4 on the cell surface (MX-1, …); assay: flow cytometry, HEK-293 cells stably transfected with human B7-H4, mean of two experiments
[6] = molecular target: T4, Recombinant human B7-H4 protein (R&D Systems #6576-B7-050) (human, UniProt Q7Z7D3 29-258); assay: ELISA, coated recombinant human B7-H4
T4 construct: Bought protein
T4 sequence: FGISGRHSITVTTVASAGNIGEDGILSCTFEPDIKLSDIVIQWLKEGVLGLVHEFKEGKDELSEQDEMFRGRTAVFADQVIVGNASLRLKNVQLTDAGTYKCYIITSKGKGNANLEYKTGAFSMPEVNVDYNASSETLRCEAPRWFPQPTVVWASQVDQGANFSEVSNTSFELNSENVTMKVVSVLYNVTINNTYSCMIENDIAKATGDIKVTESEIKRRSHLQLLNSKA

[7] = molecular target: T4, Recombinant human B7-H4 protein (R&D …); assay: ELISA, coated recombinant human B7-H4; remark: listed apart in the source
[8] = molecular target: T4, Recombinant human B7-H4 protein (R&D …); assay: ELISA, coated human B7-H4, mean of two studies
[9] = molecular target: T4, Recombinant human B7-H4 protein (R&D …); assay: ELISA, coated recombinant human B7-H4; remark: listed apart in the source
[10] = molecular target: T5, Rat B7-H4 protein (R&D Systems 10085-B7) (rat, UniProt Q501W4 29-257, limits assumed); assay: ELISA, coated rat B7-H4, mean of two studies
T5 construct: Bought protein
T5 sequence (looked up): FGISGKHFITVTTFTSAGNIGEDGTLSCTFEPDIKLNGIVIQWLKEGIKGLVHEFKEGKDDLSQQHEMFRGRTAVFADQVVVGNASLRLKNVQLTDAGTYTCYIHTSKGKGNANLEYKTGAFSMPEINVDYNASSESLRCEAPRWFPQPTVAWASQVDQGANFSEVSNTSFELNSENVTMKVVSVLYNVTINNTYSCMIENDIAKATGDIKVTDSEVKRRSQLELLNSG

B1: Palivizumab (antibody, V domains shown)
VH: QVTLRESGPALVKPTQTLTLTCTFSGFSLSTSGMSVGWIRQPPGKALEWLADIWWDDKKDYNPSLKSRLTISKDTSKNQVVLKVTNMDPADTATYYCARSMITNWYFDVWGAGTTVTVSS
VL: DIQMTQSPSTLSASVGDRVTITCKCQLSVGYMHWYQQKPGKAPKLLIYDTSKLASGVPSRFSGSGSGTEFTLTISSLQPDDFATYYCFQGSGYPFTFGGGTKLEIK
Q: Which results are given for B1?
A: EC50 [1]: > 100 nM; EC50 [2]: > 100 nM; EC50 [3]: > 200 nM; EC50 [4]: > 100 nM; EC50 [5]: > 100 nM; EC50 [6]: > 100 nM; EC50 [7]: > 100 nM; EC50 [8]: > 100 nM; EC50 [9]: > 100 nM; EC50 [10]: > 100 nM
